Assay results taken from patent US20190310251A1.
Each block holds one substance with its values, some of them ahead of it.

Columns and labels:
CD20 = CD20 (UniProt P11836); assay: cell-based or functional assay
[1] = molecular target: membrane-bound non-cleavable TNFα (human) (UniProt P01375); assay: cell-based or functional assay
Chain of UniProt P01375 (P01375 whole entry A76L/V77L): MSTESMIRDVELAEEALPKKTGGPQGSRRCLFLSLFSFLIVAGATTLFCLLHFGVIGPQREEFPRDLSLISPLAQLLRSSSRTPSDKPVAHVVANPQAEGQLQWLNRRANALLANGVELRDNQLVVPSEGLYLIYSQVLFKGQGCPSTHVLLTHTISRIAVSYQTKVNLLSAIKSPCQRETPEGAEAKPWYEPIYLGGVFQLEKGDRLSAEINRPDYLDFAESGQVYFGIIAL

Chain of UniProt P11836 (P11836 whole entry): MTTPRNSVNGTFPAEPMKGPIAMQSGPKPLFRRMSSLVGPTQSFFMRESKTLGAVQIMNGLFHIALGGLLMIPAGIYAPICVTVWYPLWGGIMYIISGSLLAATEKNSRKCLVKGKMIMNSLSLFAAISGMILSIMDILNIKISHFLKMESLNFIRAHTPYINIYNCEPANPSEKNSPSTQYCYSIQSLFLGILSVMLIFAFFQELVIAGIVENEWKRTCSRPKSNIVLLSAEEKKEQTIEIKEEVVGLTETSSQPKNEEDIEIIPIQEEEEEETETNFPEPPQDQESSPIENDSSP

EC50 of the ADCC reporter gene assay (NFAT effector cells & wild type Raji cells, no human serum) (CD20): 1.2 µg/mL
EC50 of the ADCC reporter gene assay (iLite effector cells & CD20++ target cells, no human serum) (CD20): 0.002 µg/mL
Substance: rituximab (antibody)

ADCC Reporter Gene Assay, Serum Sample/Control; Hum. Serum + adalimumab [1]: 2.39
ADCC Reporter Gene Assay, Serum Sample/Control; No Hum. Serum + adalimumab [1]: 2.65
ADCC Reporter Gene Assay, Target Positive Cells (RLU); Hum. Serum + adalimumab [1]: 27000 RLU
ADCC Reporter Gene Assay, Target Positive Cells (RLU); No Hum. Serum + adalimumab [1]: 30000 RLU
ADCC Reporter Gene Assay, Target+/Target-; Hum. Serum + adalimumab [1]: 12.3
ADCC Reporter Gene Assay, Target+/Target-; No Hum. Serum + adalimumab [1]: 17.6
Substance: adalimumab (antibody)

ADCC Reporter Gene Assay, Serum Sample/Control; Hum. Serum + Etanercept [1]: 2.77
ADCC Reporter Gene Assay, Serum Sample/Control; No Hum. Serum + Etanercept [1]: 2.66
ADCC Reporter Gene Assay, Target Positive Cells (RLU); Hum. Serum + Etanercept [1]: 23700 RLU
ADCC Reporter Gene Assay, Target Positive Cells (RLU); No Hum. Serum + Etanercept [1]: 22800 RLU
ADCC Reporter Gene Assay, Target+/Target-; Hum. Serum + Etanercept [1]: 13.1
ADCC Reporter Gene Assay, Target+/Target-; No Hum. Serum + Etanercept [1]: 14.1
Substance: etanercept (Fc fusion)
